The text below walks through data of article PMC9907810.

This assay deals with SARS-CoV-2 S-2P (engineered Spike ectodomain trimer with two stabilizing proline mutations) (SARS-CoV-2). Description: […] (200 mM NaCl, 20 mM Tris-HCl pH 7.5), 4 °C; […].

The substance “SARS-CoV-2 S-2P (engineered Spike ectodomain trimer with two stabilizing proline mutations) (natural protein)” showed a stoichiometry N of 3.

In general, stoichiometry N refers to the number of molecules, sites or subunits per partner or assembly.
